From publication PMC9799976

Experiments:
[1] = target: full-length human dynein complex (heavy chain with SNAP-tag, IC, LIC, Tctex, LC8, Robl) (human) (UniProt Q14204); test: single-molecule TIRF microscopy; DDJ complexes assembled with equal amounts of dynein labeled with TMR and Alexa 647, without N-DCX; two-colour colocalisation of moving molecules
[2] = target: fluorescently labelled, biotinylated, taxol-stabilised microtubules for the TIRF assays; test: single-molecule TIRF microscopy; TIRF landing assay: MTs immobilised on the coverslip, GFP-tagged single-head dynein in motility buffer, 2 mM AMPPNP, without DCX; parameters: landing rate on MTs: unit not given here
Chain of fluorescently labelled, biotinylated, taxol-stabilised microtubules for the TIRF assays (chain, as listed by the source, chain 1 of 2): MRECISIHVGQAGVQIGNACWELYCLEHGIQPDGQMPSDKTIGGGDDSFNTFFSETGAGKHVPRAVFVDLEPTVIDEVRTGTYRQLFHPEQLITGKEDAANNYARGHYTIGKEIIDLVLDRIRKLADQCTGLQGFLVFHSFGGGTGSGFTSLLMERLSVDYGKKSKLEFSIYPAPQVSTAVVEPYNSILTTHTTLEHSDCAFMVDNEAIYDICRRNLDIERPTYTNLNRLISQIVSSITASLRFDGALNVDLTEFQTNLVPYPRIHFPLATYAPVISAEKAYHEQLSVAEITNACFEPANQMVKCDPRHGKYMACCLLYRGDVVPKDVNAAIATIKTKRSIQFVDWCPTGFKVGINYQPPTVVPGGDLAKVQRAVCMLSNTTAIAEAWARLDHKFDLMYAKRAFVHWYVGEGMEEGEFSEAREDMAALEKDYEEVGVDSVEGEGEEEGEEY
Chain of fluorescently labelled, biotinylated, taxol-stabilised microtubules for the TIRF assays (chain, as listed by the source, chain 2 of 2): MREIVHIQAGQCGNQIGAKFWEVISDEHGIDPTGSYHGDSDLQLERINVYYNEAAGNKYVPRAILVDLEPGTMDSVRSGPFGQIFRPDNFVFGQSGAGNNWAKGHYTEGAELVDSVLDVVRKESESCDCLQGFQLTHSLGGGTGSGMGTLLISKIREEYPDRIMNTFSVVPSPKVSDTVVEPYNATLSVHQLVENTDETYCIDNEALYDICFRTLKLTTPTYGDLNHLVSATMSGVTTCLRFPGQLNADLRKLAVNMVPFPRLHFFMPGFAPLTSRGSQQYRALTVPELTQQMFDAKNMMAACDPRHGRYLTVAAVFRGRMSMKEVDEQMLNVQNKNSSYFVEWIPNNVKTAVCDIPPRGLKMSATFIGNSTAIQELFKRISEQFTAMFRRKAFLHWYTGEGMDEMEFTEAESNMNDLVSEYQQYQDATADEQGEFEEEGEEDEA

[3] = target: fluorescently labelled, biotinylated, taxol-stabilised microtubules for the TIRF assays; test: single-molecule TIRF microscopy; TIRF landing assay: MTs immobilised on the coverslip, GFP-tagged single-head dynein in motility buffer, 2 mM ADP and 0.05 U/µl hexokinase, without DCX; parameters: landing rate on MTs: unit not given here
[4] = target: fluorescently labelled, biotinylated, taxol-stabilised microtubules for the TIRF assays; test: single-molecule TIRF microscopy; TIRF landing assay: MTs immobilised on the coverslip, GFP-tagged single-head dynein in motility buffer, 2 mM ATP, with DCX; parameters: landing rate on MTs: unit not given here
[5] = target: fluorescently labelled, biotinylated, taxol-stabilised microtubules for the TIRF assays
[6] = target: fluorescently labelled, biotinylated, taxol-stabilised microtubules for the TIRF assays; test: single-molecule TIRF microscopy; TIRF landing assay: MTs immobilised on the coverslip, GFP-tagged single-head dynein in motility buffer, 2 mM ADP and 0.05 U/µl hexokinase, with DCX; parameters: landing rate on MTs: unit not given here
[7] = target: fluorescently labelled, biotinylated, taxol-stabilised microtubules for the TIRF assays; test: single-molecule TIRF microscopy; TIRF landing assay: MTs immobilised on the coverslip, GFP-tagged single-head dynein in motility buffer, 2 mM ATP, without DCX; parameters: landing rate on MTs: unit not given here
[8] = target: fluorescently labelled, biotinylated, taxol-stabilised microtubules for the TIRF assays; test: single-molecule TIRF microscopy; TIRF landing assay: MTs immobilised on the coverslip, GFP-tagged single-head dynein in motility buffer, 2 mM AMPPNP, with DCX; parameters: landing rate on MTs: unit not given here

fraction of colocalization of two differently labeled dyneins in moving DDJ complexes [1] [%] | dwell time on MTs (median) [2] [s] | landing rate on MTs [2] | dwell time on MTs (median) [3] [s] | landing rate on MTs [3] | dwell time on MTs (median) [4] [s] | landing rate on MTs [4] | velocity of MT gliding powered by surface-bound single-headed dynein with 10 nM DCX (without DCX: 0.59 [0.56, 0.63] µm/s) [5] [µm/s] | dwell time on MTs (median) [6] [s] | landing rate on MTs [6] | dwell time on MTs (median) [7] [s] | landing rate on MTs [7] | dwell time on MTs (median) [8] [s] | landing rate on MTs [8] | Substance
42 |  |  |  |  |  |  |  |  |  |  |  |  |  | full-length human dynein complex (heavy chain with SNAP-tag, IC, LIC, Tctex, LC8, Robl) (from UniProt Q14204 1-4646; Q13409 1-638; O43237 1-492; P63172 1-113; P63167 1-89; Q9NP97 1-96)
 | 1.1 | 2.1 | 1.4 | 2.1 | 1.1 | 1.4 | 0.55 | 1.3 | 1.6 | 1 | 1.6 | 1.2 | 1.1 | tail-truncated single-headed human dynein (amino acids 1320-4646 of DYNC1H1), N-terminal GFP, Q14204 1320-4646
